Reference: US20220396632A1 (VERSEAU THERAPEUTICS, published 2022)
Each block holds one binder with its values, some of them ahead of it. Non-standard residues stand in square brackets, D forms with d. No end group written: not given here. *: point of attachment. Biotin = O=C1N[C@H]2[C@H](CS[C@H]2CCCCC(=O)*)N1; sY = N[C@@H](Cc1ccc(OS(=O)(=O)O)cc1)C(=O)O

Key:
SulfoTyr C4 peptide = target: T1, SulfoTyr C4 peptide (not fully specified; Y4, Y7 and Y9 sulfated (SO3); C-terminal biotin); assay: ELISA, 50 nM mAb
T1 construct: also called C4 alpha chain peptide; human sulfotyrosinylated C4 peptide
T1 peptide: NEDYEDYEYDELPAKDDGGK
Protocol: (§1) Recombinant PSGL-1-hFc1 chimera protein consisting of PSGL-1's extracellular domain (ECD) served as a positive control. […] Primary antibody was added (25 ul per well) in duplicate at 50 nM in assay buffer (blocking buffer containing 0.05% Tween®20) into test and control (just blocked) wells and the plate incubated for 45 min at 37° C.

[1] = target: T2, Sulfotyr fibrinogen γ peptide (not fully specified; Y8 and Y12 sulfated (SO3); C-terminal biotin); assay: ELISA, 50 nM mAb
T2 construct: also called Fibrinogen gamma peptide; human sulfotyrosinylated fibrinogen peptide
T2 peptide: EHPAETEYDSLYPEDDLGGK
Protocol: as §1

[2] = target: T3, Human complement C4 protein (Millipore Sigma, Cat. 204886) (human, UniProt P0C0L4 20-675; P0C0L4 680-1446; P0C0L4 1454-1744, limits assumed, natural sulfotyrosines); assay: ELISA, 50 nM mAb
T3 construct: mature
Protocol: as §1

[3] = target: T4, Human fibrinogen protein (ThermoFisher, RP-43142) (human, UniProt P02671 20-629; P02675 31-491; P02679 27-453, limits assumed, natural sulfotyrosines); assay: ELISA, 50 nM mAb
T4 construct: mature; Native dimer with 3 pairs of non-identical chains; also called gamma-fibrinogen; γ fibrinogen protein
T4 sequence (looked up) 1: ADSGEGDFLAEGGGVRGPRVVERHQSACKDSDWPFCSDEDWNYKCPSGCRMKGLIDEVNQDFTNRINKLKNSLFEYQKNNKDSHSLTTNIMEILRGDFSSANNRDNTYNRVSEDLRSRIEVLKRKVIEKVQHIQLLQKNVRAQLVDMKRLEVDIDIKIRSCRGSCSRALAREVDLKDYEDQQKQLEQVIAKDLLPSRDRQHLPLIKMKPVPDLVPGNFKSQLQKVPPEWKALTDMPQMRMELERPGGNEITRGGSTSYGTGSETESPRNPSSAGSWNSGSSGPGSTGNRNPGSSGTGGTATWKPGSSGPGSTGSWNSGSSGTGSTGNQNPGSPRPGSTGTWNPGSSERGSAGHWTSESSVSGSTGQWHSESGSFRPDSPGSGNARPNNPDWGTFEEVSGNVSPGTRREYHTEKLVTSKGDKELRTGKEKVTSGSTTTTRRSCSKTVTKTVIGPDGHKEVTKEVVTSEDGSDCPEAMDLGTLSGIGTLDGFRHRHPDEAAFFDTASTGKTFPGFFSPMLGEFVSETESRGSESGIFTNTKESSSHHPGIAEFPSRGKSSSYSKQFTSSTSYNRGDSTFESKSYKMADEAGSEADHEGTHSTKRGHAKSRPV
T4 sequence (looked up) 2: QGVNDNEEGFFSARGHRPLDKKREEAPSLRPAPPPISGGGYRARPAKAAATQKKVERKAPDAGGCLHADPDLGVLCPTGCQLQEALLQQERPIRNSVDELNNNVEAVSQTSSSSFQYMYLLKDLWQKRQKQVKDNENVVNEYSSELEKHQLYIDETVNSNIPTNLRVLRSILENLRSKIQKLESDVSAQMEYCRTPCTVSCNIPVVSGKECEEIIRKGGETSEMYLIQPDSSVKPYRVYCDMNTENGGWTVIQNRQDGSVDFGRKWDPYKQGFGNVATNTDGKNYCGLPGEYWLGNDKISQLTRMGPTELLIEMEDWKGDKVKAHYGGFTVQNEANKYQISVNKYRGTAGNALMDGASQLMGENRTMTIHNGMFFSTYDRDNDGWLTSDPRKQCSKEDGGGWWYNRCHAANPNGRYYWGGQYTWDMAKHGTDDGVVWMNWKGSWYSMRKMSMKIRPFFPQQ
T4 sequence (looked up) 3: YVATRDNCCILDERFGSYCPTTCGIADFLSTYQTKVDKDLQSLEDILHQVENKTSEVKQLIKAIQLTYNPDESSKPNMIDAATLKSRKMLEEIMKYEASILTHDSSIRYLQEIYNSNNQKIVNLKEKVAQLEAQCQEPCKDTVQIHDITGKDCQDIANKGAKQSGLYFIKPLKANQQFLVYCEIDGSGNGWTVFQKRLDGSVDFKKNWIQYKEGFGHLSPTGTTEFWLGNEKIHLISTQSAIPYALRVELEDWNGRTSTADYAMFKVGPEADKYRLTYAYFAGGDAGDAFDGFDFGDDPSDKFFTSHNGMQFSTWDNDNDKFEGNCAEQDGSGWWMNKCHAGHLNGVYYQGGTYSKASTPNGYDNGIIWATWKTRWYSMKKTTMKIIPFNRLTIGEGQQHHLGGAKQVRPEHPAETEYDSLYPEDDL
Protocol: as §1

SulfoCCK biotin peptide = target: T5, SulfoCCK biotin peptide (human); assay: ELISA, 50 nM mAb
T5 construct: also called sulfotyrosine CCK peptide
T5 peptide: SHRISDRD[sY]MGWMDFGGK(Biotin)
Protocol: as §1

[4] = target: T6, Sulfotyrosine CCR2b biotin peptide (human); assay: ELISA, 50 nM mAb
T6 construct: also called CCR2b peptide
T6 peptide: TTFFD[sY]D[sY]GAPSHGGK(Biotin)
Protocol: as §1

[5] = target: T7, Sulfotyrosine D6 biotin peptide (human); assay: ELISA, 50 nM mAb
T7 construct: also called D6 peptide
T7 peptide: ENSSFY[sY][sY]D[sY]LDEVAFGGK(Biotin)
Protocol: as §1

[6] = target: T8, Cynomolgus PSGL-1(ECD)-hFc1 (cynomolgus macaque); assay: ELISA, plate cyno PSGL-1(ECD)-Fc
T8 construct: also called Cyno PSGL1-Fc; Cyno PSGL-1(ECD)-Fc
Protocol: Antibody binding to plate-immobilized cyno PSGL-1(ECD) was determined either at one concentration (20 nM) or by generating full antibody binding curves (0.003-200 nM). A typical ELISA was performed by overnight coating at 4° C. with 3 ug/mL/25 ul per well of recombinant cyno PSGL-1(ECD) protein in PBS, pH 7.4, in high binding half-well plates (Corning Cat. #3690). […] Anti-PSGL-1 IgG in assay buffer (blocking buffer containing 0.05% tween 20) was added into test and control wells (20 nM/25 ul/well) and the plate incubated for 45 min at 37° C. […] The plate was incubated for 45 min at 37° C., and mAb bound to plate-immobilized target determined at A450 nm using HRP substrate (3,3′,5,5′-tetramethylbenzidine (TMB)). For each antibody, duplicate values were averaged and assay background subtracted.

[7] = target: T9, Scrambled Y42,52,63(SO3) PSGL-1(42-62) biotin peptide (sulfotyrosine at peptide positions 1, 11 and 22; C-terminal Lys-biotin); assay: ELISA, immobilized biotin peptide
T9 peptide: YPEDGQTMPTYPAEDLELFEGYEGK
In short: (§2)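 In this ELISA, half-well high binding plates (Corning Cat. #3690) received 3 ug/mL/25 ul per well of biotin-tagged PSGL-1 peptides covering residues 42 to 62, diluted in PBS, pH 7.4, and coated overnight at 4° C. Duplicate readings for each antibody were averaged and the average assay background was subtracted. PSGL-1 protein or peptide was the positive control.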

[8] = target: T10, Biotin PSGL-1(42-62) peptide, unmodified (human, C-terminal Lys-biotin); assay: ELISA, immobilized biotin peptide
T10 construct: Residues 42-62 followed by GGGK-biotin; also called WT; wild-type
T10 peptide: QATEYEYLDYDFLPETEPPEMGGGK
In short: as §2

[9] = target: T11, Biotin Y46,48,51(SO3) PSGL-1(42-62) peptide (human, sulfotyrosine at Y46, Y48 and Y51; C-terminal Lys-biotin); assay: ELISA, immobilized biotin peptide
T11 construct: also called fully sulfated N-terminal PSGL-1 peptide
T11 peptide: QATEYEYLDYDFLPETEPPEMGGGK
In short: as §2

[10] = target: T12, Recombinant human PSGL-1(ECD)-hFc1 (R&D Systems, Cat. 3345-PS) (human, UniProt Q14242 42-305); assay: ELISA, plate-bound target
T12 construct: Bought; Gln42-Val295 counted on AAC50061; also called PSGL-1-Fc; PSGL-1-hFc1 chimera; not shown: human IgG1 Fc, Pro100-Lys330
T12 sequence: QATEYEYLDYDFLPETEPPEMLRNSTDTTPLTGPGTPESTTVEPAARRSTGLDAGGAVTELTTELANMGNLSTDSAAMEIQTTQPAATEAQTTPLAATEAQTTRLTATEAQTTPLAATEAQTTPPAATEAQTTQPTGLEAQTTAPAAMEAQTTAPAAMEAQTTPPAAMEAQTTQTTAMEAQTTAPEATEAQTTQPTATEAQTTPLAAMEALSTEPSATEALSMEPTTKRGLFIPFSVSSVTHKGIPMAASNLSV
Protocol: (§3) Two ELISA methods were performed. One procedure detected mAb binding to its plate-immobilized target and the other measured the immobilized antibody's ability to capture biotinylated PSGL-1₄₂₋₆₂. […] The plate was incubated for 45 min at 37° C. Plates were washed 3 times with wash buffer (PBS containing 0.05% tween 20, pH 7.4) and a single concentration (2 to 500 nM) or serially diluted (0.002-100 nM) anti-PSGL-1 mAb was added (25 ul/well) in assay buffer into appropriate wells. The plate was incubated for 45 min at 37° C., washed 3 times, and an appropriate HRP-conjugated secondary antibody added (25 ul/well) (HRP goat anti-mouse or anti-human IgG). After 45 min incubation at 37° C., the plate was washed, and antibody bound to plate-immobilized target was determined at A450 nm using HRP substrate (3,3′,5,5′-etramethylbenzidine (TMB)). For each antibody, duplicate values were averaged and assay background was subtracted. Except for the following, ELISAs involving plate-immobilized mAb capturing of biotinylated PSGL-1₄₂₋₆₂ peptides was performed in the same manner as described above: 3 ug/mL/25 ul per well of mAb was coated directly onto microtiter plate wells; biotinylated unmodified or sulfotyrosine PSGL-1₄₂₋₆₂ was serially diluted (3 nM-3 uM) into appropriate wells, and antibody-bound peptide was detected using HRP-streptavidin (Jackson Immunoresearch, Cat. #016-030-084).

[11] = target: T11, Biotin Y46,48,51(SO3) PSGL-1(42-62) …; assay: ELISA, plate-bound target
Protocol: as §3

[12] = target: T13, Biotin sY51 PSGL-1(42-62) peptide (human, sulfotyrosine at Y51; C-terminal Lys-biotin); assay: ELISA, plate-bound mAb captures biotin peptide
T13 construct: also called Y51(SO3) PSGL-1(42-62)
T13 peptide: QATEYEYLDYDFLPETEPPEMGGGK
Protocol: as §3

[13] = target: T11, Biotin Y46,48,51(SO3) PSGL-1(42-62) …; assay: ELISA, plate-bound mAb captures biotin peptide
Protocol: as §3

[14] = target: T14, Biotin sY46 PSGL-1(42-62) peptide (human, sulfotyrosine at Y46; C-terminal Lys-biotin); assay: ELISA, plate-bound mAb captures biotin peptide
T14 peptide: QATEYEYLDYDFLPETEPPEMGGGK
Protocol: as §3

[15] = target: T15, Biotin sY48 PSGL-1(42-62) peptide (human, sulfotyrosine at Y48; C-terminal Lys-biotin); assay: ELISA, plate-bound mAb captures biotin peptide
T15 construct: also called sY48S
T15 peptide: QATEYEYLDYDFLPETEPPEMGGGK
Protocol: as §3

T3 sequence (P0C0L4 20-675 limits assumed, form in doubt, chain 1 of 3): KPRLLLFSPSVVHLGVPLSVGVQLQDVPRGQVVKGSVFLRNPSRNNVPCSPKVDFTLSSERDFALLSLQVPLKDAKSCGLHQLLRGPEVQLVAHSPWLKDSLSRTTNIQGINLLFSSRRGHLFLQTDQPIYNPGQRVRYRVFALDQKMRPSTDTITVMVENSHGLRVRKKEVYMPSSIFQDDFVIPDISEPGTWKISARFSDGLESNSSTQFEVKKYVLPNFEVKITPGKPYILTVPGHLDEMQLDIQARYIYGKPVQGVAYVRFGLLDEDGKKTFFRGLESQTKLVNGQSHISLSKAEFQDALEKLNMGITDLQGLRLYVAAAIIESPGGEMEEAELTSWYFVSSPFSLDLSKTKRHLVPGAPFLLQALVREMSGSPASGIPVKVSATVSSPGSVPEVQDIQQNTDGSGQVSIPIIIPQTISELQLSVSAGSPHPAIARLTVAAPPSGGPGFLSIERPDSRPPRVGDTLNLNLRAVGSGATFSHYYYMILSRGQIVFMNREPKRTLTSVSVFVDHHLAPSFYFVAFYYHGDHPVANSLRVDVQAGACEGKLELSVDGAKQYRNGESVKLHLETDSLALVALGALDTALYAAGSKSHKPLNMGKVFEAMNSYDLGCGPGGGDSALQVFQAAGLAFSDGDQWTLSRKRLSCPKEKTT
T3 sequence (P0C0L4 680-1446 limits assumed, form in doubt, chain 2 of 3): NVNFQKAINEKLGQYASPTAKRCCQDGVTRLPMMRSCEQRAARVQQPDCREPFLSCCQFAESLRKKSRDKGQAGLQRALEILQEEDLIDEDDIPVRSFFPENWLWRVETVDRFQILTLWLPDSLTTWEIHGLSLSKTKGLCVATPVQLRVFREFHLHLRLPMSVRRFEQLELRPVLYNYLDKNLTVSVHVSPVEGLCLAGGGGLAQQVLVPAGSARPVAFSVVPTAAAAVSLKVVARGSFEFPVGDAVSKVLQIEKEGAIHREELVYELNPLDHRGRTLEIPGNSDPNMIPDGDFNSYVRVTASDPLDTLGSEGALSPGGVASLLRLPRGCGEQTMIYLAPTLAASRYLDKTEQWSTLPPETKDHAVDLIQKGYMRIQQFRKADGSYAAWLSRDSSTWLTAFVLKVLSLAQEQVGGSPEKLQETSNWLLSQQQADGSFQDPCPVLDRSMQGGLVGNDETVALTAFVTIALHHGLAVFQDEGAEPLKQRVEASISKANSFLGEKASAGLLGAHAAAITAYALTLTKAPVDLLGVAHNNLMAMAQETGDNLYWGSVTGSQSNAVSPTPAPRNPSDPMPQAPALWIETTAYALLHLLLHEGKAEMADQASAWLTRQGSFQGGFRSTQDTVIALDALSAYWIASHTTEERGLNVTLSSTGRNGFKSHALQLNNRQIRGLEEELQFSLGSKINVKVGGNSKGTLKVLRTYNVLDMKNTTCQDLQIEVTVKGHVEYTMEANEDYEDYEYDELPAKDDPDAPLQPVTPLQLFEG
T3 sequence (P0C0L4 1454-1744 limits assumed, form in doubt, chain 3 of 3): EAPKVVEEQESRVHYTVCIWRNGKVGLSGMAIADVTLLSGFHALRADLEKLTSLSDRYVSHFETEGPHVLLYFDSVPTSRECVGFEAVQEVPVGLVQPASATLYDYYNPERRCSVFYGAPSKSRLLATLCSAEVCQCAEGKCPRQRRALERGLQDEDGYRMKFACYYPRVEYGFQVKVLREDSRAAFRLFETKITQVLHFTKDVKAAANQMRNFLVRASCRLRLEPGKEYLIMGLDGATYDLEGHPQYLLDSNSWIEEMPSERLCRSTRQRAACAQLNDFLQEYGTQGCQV

- binding normalized to PSGL-1 (SulfoTyr C4 peptide): 0.94
- binding normalized to PSGL-1 [1]: 0.97
- binding normalized to PSGL-1 [2]: 0.58
- binding normalized to PSGL-1 [3]: 0.07
- binding normalized to PSGL-1 (SulfoCCK biotin peptide): 1.1
- binding normalized to PSGL-1 [4]: 0.78
- binding normalized to PSGL-1 [5]: 0.69
- binding result [6]: no binding (tested: 20 nM)
- binding result [7]: no binding (tested: 20 nM)
- EC50 [8]: 3.8 nM
- A450nm, 20 nM mAb [9]: 2.72 A450nm
- EC50 [9]: 0.03 nM
B1: 02G01 (antibody, IgG4, V domains shown)
VH: EVQLVQSGAEVKKPGASVKVSCKASGYTFTSYGISWVRQAPGQGLEWMGWISAYNGNTNYAQKLQGRVTMTTDTSTSTAYMELRSLRSDDTAVYYCARVTRLPGGGYAFDIWGQGTMVTVSL
VL: QSVLTQPPSASGTPGQRITISCSGSTSNIGNKHVYWYQQFPGAAPKLLIHNTNKRPSGVPDRFSGSKSGTSASLAISGLQSDDEADYYCAAWDGSLSAWVFGGGTKLTVL

- EC50 [10]: 0.02 nM
- EC50 [11]: 0.07 nM
- EC50 [12]: 129 nM
- EC50 [13]: 6.2 nM
- EC50 [14]: 167 nM
- EC50 [15]: 8.34 nM
B2: SELK1 (antibody, V domains shown)
VH: QVQLQQSGPGLVKPSQTLSLTCAISGDSVSSNIAAWHWIRLSPSRGLEWLGRTYYRRSKWNYDYALSVKSRININPDTSKNLFSLQLNSVTPEDTAVYYCTRGGGRAHSAWGQGTLVTVSS
VL: EIVLTQSPGTLSVSPGERATLSCRASQSVSRSHLAWYQQKPGQAPRLLIFGASSRATGIPDRFSGSGSGTDFTLTISRLEPEDFAVYYCQQYGRPGVTFGQGTKVEIK
notes: Control anti-PSGL-1 mAb; only variable domains given

- binding normalized to PSGL-1 (SulfoTyr C4 peptide): 1.15
- binding normalized to PSGL-1 [1]: 1.22
- binding normalized to PSGL-1 [2]: 1.13
- binding normalized to PSGL-1 [3]: 0.53
- binding normalized to PSGL-1 (SulfoCCK biotin peptide): 1.17
- binding normalized to PSGL-1 [4]: 1.09
- binding normalized to PSGL-1 [5]: 1.22
- binding result [6]: no binding (tested: 20 nM)
- binding result [7]: no binding (tested: 20 nM)
- A450nm, 20 nM mAb [8]: 0.17 A450nm
- A450nm, 20 nM mAb [9]: 2.44 A450nm
B3: 05A07 (antibody, IgG4, V domains shown)
VH: QVQLVQSGSEVKRPGASVKVSCKTSGYTFSNYGIAWVRQAPGQGLEWVGWVSAYNGKTGASQKLQGRVTMTTDRSTTTAYLELRSLQSDDTAVYYCARGVKGGLTGYARDYWGQGTLVIVSS
VL: DIVLTQSPRSLPVTLGQPASISCRSSQSLVNRAGDTYLNWFQQRPGQSPRRLIYKVSNRDSGVPDRFSGSGSGTDFTLKISRVEAEDVGVYYCMQGTQWPYTFGQGTKLEIK
